Experiments:
006 PSMA Fab [1] = target: T1, 006 PSMA Fab; experiment: clonal phage ELISA; biotinylated PSMA Fab captured on neutravidin plate, wells pre-incubated with PSMA antigen as competitor; bound phage detected with anti-M13 HRP
T1 construct: In the phage ELISA the PSMA Fab was biotinylated and captured on neutravidin coated plates; also called Anti-PSMA Fab
Experimental: (§1) Clonal phage were harvested as crude supernatants and screened via standard ELISAs. […] Prior to the addition of clonal phage. wells were incubated with blocking buffer and PSMA antigen or blocking buffer alone. Without washing or aspirating, clonal phage supernatants were then added to the wells and incubated for a short time. Wells were then washed followed by detection of bound phage using a horse radish conjugated anti-M13 antibody.

006 PSMA Fab [2] = target: T1, 006 PSMA Fab; experiment: clonal phage ELISA; biotinylated PSMA Fab captured on neutravidin plate, blocking buffer alone; bound phage detected with anti-M13 HRP
Experimental: as §1

PSMA Fab (006 PSMA Fab) [3] = target: T2, PSMA Fab (006 PSMA Fab); experiment: phage ELISA on captured PSMA Fab pre-incubated with the competitor PSMA antigen, anti-M13-HRP detection
T2 construct: also called Anti-PSMA Fab
Experimental: as §1

PSMA Fab (006 PSMA Fab) [4] = target: T2, PSMA Fab (006 PSMA Fab); experiment: clonal phage supernatant on biotinylated PSMA Fab captured on neutravidin plate, anti-M13-HRP detection;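 also: before phage were added, wells received PSMA antigen in blocking buffer or blocking buffer alone, with no wash in between, followed by a short phage incubation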
Experimental: as §1

PSMA Fab (006 PSMA Fab) [5] = target: T3, PSMA Fab (006 PSMA Fab); experiment: phage binding ELISA; biotinylated PSMA Fab on neutravidin plate, clonal phage supernatant, anti-M13 HRP detection;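 also: wells were preincubated with blocking buffer either containing PSMA antigen or without it before crude phage supernatant was added, briefly incubated, then washed prior to detection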
T3 construct: also called Anti-PSMA Fab; anti-PSMA Fab
Experimental: as §1

006 PSMA Fab [6] = target: T4, 006 PSMA Fab (biotinylated (site not stated)); experiment: clonal phage ELISA; biotinylated PSMA Fab on neutravidin plate pre-incubated with PSMA antigen as competitor, anti-M13-HRP detection
T4 construct: also called Anti-PSMA Fab

006 PSMA Fab [7] = target: T4, 006 PSMA Fab; experiment: clonal phage ELISA; biotinylated PSMA Fab on neutravidin plate, blocking buffer alone, anti-M13-HRP detection;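 also: crude clonal phage supernatants added without washing to wells preincubated with PSMA antigen or with blocking buffer alone, briefly incubated, then washed before bound phage detection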
Experimental: as §1

Binder | phage binding ELISA signal, Anti-PSMA Fab in the presence of PSMA (PSMA Fab (006 PSMA Fab) [3]) | Phage binding ELISA signal, Anti-PSMA Fab (PSMA Fab (006 PSMA Fab) [4]) | Phage binding ELISA signal, Anti-PSMA Fab (PSMA Fab (006 PSMA Fab) [5]) | also measured
PLTSCVPQWMCYGF [Phage-3940] | – | – | – | Phage binding ELISA signal, Anti-PSMA Fab with PSMA antigen (006 PSMA Fab [1]): 0.0873; Phage binding ELISA signal, Anti-PSMA Fab (006 PSMA Fab [2]): 0.913
YQMLCVPEWMCSGL [Phage-3915] | 0.0874 | 1.02 | – | –
ATVRCMPMWMCHGF [Phage-3912] | 0.0901 | 1.03 | – | –
IEAQCRPVWMCHGF [Phage-3923] | 0.0779 | 0.978 | – | –
LTPVCRPAWMCLEL (Tested as clonal phage supernatant; not shown: fused to the pIII filament protein of the bacteriophage) [Phage-3937 (Peptide-180 library clone)] | – | – | 0.922 | –
YTQACTPSWMCHGF (Tested as clonal phage supernatant; not shown: fused to the pIII filament protein of the bacteriophage) [Phage-3933 (Peptide-180 library clone)] | – | – | 0.96 | –
PTIMCIPVWMCQAF (Tested as clonal phage supernatant; not shown: fused to the pIII filament protein of the bacteriophage) [Phage-3931 (Peptide-180 library clone)] | – | – | 0.966 | –
DRVLCTPTWMCEGF [Phage-3917] | 0.0642 | 1.01 | – | –
TWSICEPRWMCEGF (Tested as clonal phage supernatant; not shown: fused to the pIII filament protein of the bacteriophage) [Phage-3929 (Peptide-180 library clone)] | – | – | 0.97 | –
WVRLCQPAWMCTGL (Tested as clonal phage supernatant; not shown: fused to the pIII filament protein of the bacteriophage) [Phage-3936 (Peptide-180 library clone)] | – | – | 0.926 | –
FGVKCEPRWMCNGF [Phage-3914] | 0.0693 | 1.02 | – | –
PGFWCQPKWMCEGF (Tested as clonal phage supernatant; not shown: fused to the pIII filament protein of the bacteriophage) [Phage-3935 (Peptide-180 library clone)] | – | – | 0.93 | –
LVPRCLPEWMCTGF (tested as crude clonal phage supernatant) [Phage-3893] | – | – | – | Phage binding ELISA signal, Anti-PSMA Fab in the presence of PSMA antigen (006 PSMA Fab [6]): 0.0848; Phage binding ELISA signal, Anti-PSMA Fab (006 PSMA Fab [7]): 1.09
LTVYCTPEWMCSGW [Phage-3948] | – | – | – | Phage binding ELISA signal, Anti-PSMA Fab with PSMA antigen (006 PSMA Fab [1]): 0.0749; Phage binding ELISA signal, Anti-PSMA Fab (006 PSMA Fab [2]): 0.882
GAYTCVPAWMCQGF [Phage-3922] | 0.0665 | 0.979 | – | –
GWVGCVPLWMCEGF [Phage-3949] | – | – | – | Phage binding ELISA signal, Anti-PSMA Fab with PSMA antigen (006 PSMA Fab [1]): 0.0698; Phage binding ELISA signal, Anti-PSMA Fab (006 PSMA Fab [2]): 0.878
DIVECRPRWMCDGF (Tested as clonal phage supernatant; not shown: fused to the pIII filament protein of the bacteriophage) [Phage-3934 (Peptide-180 library clone)] | – | – | 0.936 | –
SMQKCVPSWMCAGF (Tested as clonal phage supernatant; not shown: fused to the pIII filament protein of the bacteriophage) [Phage-3927 (Peptide-180 library clone)] | – | – | 0.972 | –
QLLRCVPPWMCEGF (Tested as clonal phage supernatant; not shown: fused to the pIII filament protein of the bacteriophage) [Phage-3930 (Peptide-180 library clone)] | – | – | 0.97 | –
DQHACRPEWMCVGF (tested as crude clonal phage supernatant) [Phage-3890] | – | – | – | Phage binding ELISA signal, Anti-PSMA Fab in the presence of PSMA antigen (006 PSMA Fab [6]): 0.0789; Phage binding ELISA signal, Anti-PSMA Fab (006 PSMA Fab [7]): 1.1
STTLCRPAWMCTGM [Phage-3916] | 0.0655 | 1.02 | – | –
DYWYCQPAWMCTGL (tested as crude clonal phage supernatant) [Phage-3892] | – | – | – | Phage binding ELISA signal, Anti-PSMA Fab in the presence of PSMA antigen (006 PSMA Fab [6]): 0.0585; Phage binding ELISA signal, Anti-PSMA Fab (006 PSMA Fab [7]): 1.1
STMSCVPSWMCLGF [Phage-3946] | – | – | – | Phage binding ELISA signal, Anti-PSMA Fab with PSMA antigen (006 PSMA Fab [1]): 0.0614; Phage binding ELISA signal, Anti-PSMA Fab (006 PSMA Fab [2]): 0.885
AQKLCEPMWMCVGF [Phage-3918] | 0.064 | 1 | – | –

Source: patent US20260242478A1 (published 2026)
